First the molecules themselves.
B1: Alpha-lactalbumin, P00712 (parent)
chain: MMSFVSLLLVGILFHATQAEQLTKCEVFQKLKDLKDYGGVSLPEWVCTAFHTSGYDTQAIVQNNDSTEYGLFQINNKIWCKDDQNPHSRNICNISCDKFLDDDLTDDIVCAKKILDKVGINYWLAHKALCSEKLDQWLCEKL

Values joined by “and” are separate entries in the source; they are usually repeats but may differ in a detail not shown here. Equal values may be shown once.

Variants of B1 are the subject of this data set. As to conditions: Capra hircus, pH 7.5, 25 °C, GdnHCl, CD, Tris 20 mM, Ca2+ 10 mM, structure 1HFY, whole UniProt chain shown.

For W123F, the “ddG of mutation (higher = less stable)” value was 2.27 kcal/mol, the denaturant m value came out at 2.8 kcal/mol/M and the unfolding free energy amounted to 7.97 kcal/mol.
For the variant W45F, the “ddG of mutation (higher = less stable)” value was 2.4 kcal/mol, the denaturant m value was determined as 2.81 kcal/mol/M and the unfolding free energy was determined as 7.84 kcal/mol. Where the note is “transition: 3”, the denaturant m value was 1.65 kcal/mol/M and 1.16 kcal/mol/M; the unfolding free energy was 4.18 kcal/mol and 3.66 kcal/mol.
Consider W137F, for which the “ddG of mutation (higher = less stable)” value was -0.16 kcal/mol, the denaturant m value turned out to be 3.06 kcal/mol/M and the unfolding free energy amounted to 10.4 kcal/mol.
For the variant W79F, the “ddG of mutation (higher = less stable)” value amounted to 1.27 kcal/mol, the denaturant m value came out at 2.65 kcal/mol/M and the unfolding free energy stood at 8.97 kcal/mol. Besides, under “transition: 3”, the denaturant m value is 1.51 kcal/mol/M and 1.14 kcal/mol/M; the unfolding free energy is 4.98 kcal/mol and 3.99 kcal/mol.

The record behind these values is FireProtDB (doi:10.1021/bi0512400).
